Test results published in publication PMC2033796, “Mechanisms of acquired resistance to the quinazoline thymidylate synthase inhibitor ZD1694 (Tomudex) in one mouse and three human cell lines” (British Journal of Cancer, 1995).

Substrate: Nc1nc2c(c(=O)[nH]1)N1CN(c3ccc(C(=O)N[C@@H](CCC(=O)O)C(=O)O)cc3)CC1CN2
Assay: purified protein
Type: biochemical, Homo sapiens
Settings: co-substrate dUMP; mixed diastereoisomers (6R,S)

B1: TS isolated from human ovarian CH1 cells (CH1 TS) (Homo sapiens) (protein)
chain: PVAGSELPRRPLPPAAQERDAEPRPPHGELQYLGQIQHILRCGVRKDDRTGTGTLSVFGMQARYSLRDEFPLLTTKRVFWKGVLEELLWFIKGSTNAKELSSKGVKIWDANGSRDFLDSLGFSTREEGDLGPVYGFQWRHFGAEYRDMESDYSGQGVDQLQRVIDTIKTNPDDRRIIMCAWNPRDLPLMALPPCHALCQFYVVNSELSCQLYQRSGDMGLGVPFNIASYALLTYMIAHITGLKPGDFIHTLGDAHIYLNHIEPLKIQLQREPRPFPKLRILRKVEKIDDFKAEDFQIEGYNPHPTIKMEMAV
notes: native enzyme partially purified from CH1 ovarian tumour cells (parental line), no tag
  Km: 24 ± 0.8 µM
